T1: human CD19 (human, UniProt P15391 20-556)
T1 construct: CD19 as expressed on Raji, NALM-6 and SU-DHL-6 cells; also called CD19 antigen; B-cell surface antigen B4
T1 sequence: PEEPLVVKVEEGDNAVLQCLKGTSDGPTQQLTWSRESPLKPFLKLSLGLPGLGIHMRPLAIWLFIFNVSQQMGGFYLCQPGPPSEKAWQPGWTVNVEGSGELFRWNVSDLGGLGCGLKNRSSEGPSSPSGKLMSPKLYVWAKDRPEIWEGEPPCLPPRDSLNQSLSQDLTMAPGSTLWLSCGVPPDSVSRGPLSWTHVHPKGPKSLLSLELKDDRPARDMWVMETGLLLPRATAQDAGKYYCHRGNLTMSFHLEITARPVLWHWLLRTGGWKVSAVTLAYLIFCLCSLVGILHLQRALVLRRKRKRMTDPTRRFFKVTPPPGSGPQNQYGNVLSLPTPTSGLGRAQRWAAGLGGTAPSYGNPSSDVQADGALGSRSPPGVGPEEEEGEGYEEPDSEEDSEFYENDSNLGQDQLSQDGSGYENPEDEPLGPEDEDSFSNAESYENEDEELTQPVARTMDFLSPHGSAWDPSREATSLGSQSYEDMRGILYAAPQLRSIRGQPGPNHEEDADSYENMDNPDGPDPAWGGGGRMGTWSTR


Target: T1, human CD19
Assay: flow cytometry, Raji cells, MPF vs chimeric FMC63
Protocol: Binding of the CD19 humanized monoclonal antibodies by flow cytometry to Raji tumor cells (human Burkitt lymphoma, DSMZ ACC319), NALM-6 (human B cell precursor leukemia, DSMZ ACC128) and SU-DHL-6 (human B cell lymphoma, DSMZ ACC572) (all cell lines from DSMZ Braunschweig, Deutschland) was assessed. Cells were incubated with serial dilutions of each humanized monoclonal antibody. An irrelevant human IgG1 was used as a negative control. The cells were washed and detected by a phycoerythrin-labeled (PE) anti-human secondary antibody (eBioscience, CA, USA) and analyzed by flow cytometry. […] From MFI versus antibody concentration curves, Mid-Point Fluorescence (MPF) value for each anti-CD19 humanized antibody was calculated using the software GraphPad Prism 5 (CA, USA).

relative MPF (% of chimeric FMC63) [%]	binding result	Binder
111		VH16 R94K/VL43 V3Q/T7S/Y32F/P44I/N92A (antibody, human IgG1, kappa, V domains shown, human IgG1/kappa) VH: QVQLVQSGGGVVQPGRSLRLSCAASGVSLPDYGVSWVRQAPGKGLEWVAVIWGSETTYYNSALKSRFTISRDNSKNTLYLQMNSLRAEDTAVYYCAKHYYYGGSYAMDYWGQGTLVTVSS VL: DIQMTQSPSSLSASVGDRVTITCRASQDISKFLNWYQQKPGKAIKLLIYHTSRLHSGVPSRFSGSGSGTDFTLTISSLQPEDFATYYCQQGATLPYTFGPGTKVDIKR
11.3		VH16/VL43-F71Y (antibody, human IgG1, V domains shown, substitutions in Kabat numbering) VH: QVQLVQSGGGVVQPGRSLRLSCAASGVSLPDYGVSWVRQAPGKGLEWVAVIWGSETTYYNSALKSRFTISRDNSKNTLYLQMNSLRAEDTAVYYCARHYYYGGSYAMDYWGQGTLVTVSS VL: DIVMTQTPSSLSASVGDRVTITCRASQDISKYLNWYQQKPGKAPKLLIYHTSRLHSGVPSRFSGSGSGTDYTLTISSLQPEDFATYYCQQGNTLPYTFGPGTKVDIKR
6.54		VH16-F67L/VL43-F71Y (antibody, human IgG1, name in Kabat numbering, V domains shown, substitutions in Kabat numbering) VH: QVQLVQSGGGVVQPGRSLRLSCAASGVSLPDYGVSWVRQAPGKGLEWVAVIWGSETTYYNSALKSRLTISRDNSKNTLYLQMNSLRAEDTAVYYCARHYYYGGSYAMDYWGQGTLVTVSS VL: DIVMTQTPSSLSASVGDRVTITCRASQDISKYLNWYQQKPGKAPKLLIYHTSRLHSGVPSRFSGSGSGTDYTLTISSLQPEDFATYYCQQGNTLPYTFGPGTKVDIKR
4.19		VH16-R71K/VL43-Y87F (antibody, human IgG1, name in Kabat numbering, V domains shown, substitutions in Kabat numbering) VH: QVQLVQSGGGVVQPGRSLRLSCAASGVSLPDYGVSWVRQAPGKGLEWVAVIWGSETTYYNSALKSRFTISKDNSKNTLYLQMNSLRAEDTAVYYCARHYYYGGSYAMDYWGQGTLVTVSS VL: DIVMTQTPSSLSASVGDRVTITCRASQDISKYLNWYQQKPGKAPKLLIYHTSRLHSGVPSRFSGSGSGTDFTLTISSLQPEDFATYFCQQGNTLPYTFGPGTKVDIKR
72.8		VH16 R94K Y97F VL43 (antibody, human IgG1, name in Kabat numbering, V domains shown, substitutions in Kabat numbering) VH: QVQLVQSGGGVVQPGRSLRLSCAASGVSLPDYGVSWVRQAPGKGLEWVAVIWGSETTYYNSALKSRFTISRDNSKNTLYLQMNSLRAEDTAVYYCAKHYFYGGSYAMDYWGQGTLVTVSS VL: DIVMTQTPSSLSASVGDRVTITCRASQDISKYLNWYQQKPGKAPKLLIYHTSRLHSGVPSRFSGSGSGTDFTLTISSLQPEDFATYYCQQGNTLPYTFGPGTKVDIKR
5.36		VH16 R94K Y96F VL43 (antibody, human IgG1, name in Kabat numbering, V domains shown, substitutions in Kabat numbering) VH: QVQLVQSGGGVVQPGRSLRLSCAASGVSLPDYGVSWVRQAPGKGLEWVAVIWGSETTYYNSALKSRFTISRDNSKNTLYLQMNSLRAEDTAVYYCAKHFYYGGSYAMDYWGQGTLVTVSS VL: DIVMTQTPSSLSASVGDRVTITCRASQDISKYLNWYQQKPGKAPKLLIYHTSRLHSGVPSRFSGSGSGTDFTLTISSLQPEDFATYYCQQGNTLPYTFGPGTKVDIKR
62.5		VH16 R94K Y32F VL43 (antibody, human IgG1, name in Kabat numbering, V domains shown, substitutions in Kabat numbering) VH: QVQLVQSGGGVVQPGRSLRLSCAASGVSLPDFGVSWVRQAPGKGLEWVAVIWGSETTYYNSALKSRFTISRDNSKNTLYLQMNSLRAEDTAVYYCAKHYYYGGSYAMDYWGQGTLVTVSS VL: DIVMTQTPSSLSASVGDRVTITCRASQDISKYLNWYQQKPGKAPKLLIYHTSRLHSGVPSRFSGSGSGTDFTLTISSLQPEDFATYYCQQGNTLPYTFGPGTKVDIKR
	binds	VH16 R94K/Y97F/VL43 V3Q/T7S/N92A (antibody, human IgG1, name in Kabat numbering, V domains shown, substitutions in Kabat numbering) VH: QVQLVQSGGGVVQPGRSLRLSCAASGVSLPDYGVSWVRQAPGKGLEWVAVIWGSETTYYNSALKSRFTISRDNSKNTLYLQMNSLRAEDTAVYYCAKHYFYGGSYAMDYWGQGTLVTVSS VL: DIQMTQSPSSLSASVGDRVTITCRASQDISKYLNWYQQKPGKAPKLLIYHTSRLHSGVPSRFSGSGSGTDFTLTISSLQPEDFATYYCQQGATLPYTFGPGTKVDIKR
	binds	VH16 Y32F/R94K/VL43 V3Q/T7S/Y32F/N92A (antibody, human IgG1, name in Kabat numbering, V domains shown, substitutions in Kabat numbering) VH: QVQLVQSGGGVVQPGRSLRLSCAASGVSLPDFGVSWVRQAPGKGLEWVAVIWGSETTYYNSALKSRFTISRDNSKNTLYLQMNSLRAEDTAVYYCAKHYYYGGSYAMDYWGQGTLVTVSS VL: DIQMTQSPSSLSASVGDRVTITCRASQDISKFLNWYQQKPGKAPKLLIYHTSRLHSGVPSRFSGSGSGTDFTLTISSLQPEDFATYYCQQGATLPYTFGPGTKVDIKR
10.8		VH16-L78V/VL43 (antibody, human IgG1, name in Kabat numbering, V domains shown, substitutions in Kabat numbering) VH: QVQLVQSGGGVVQPGRSLRLSCAASGVSLPDYGVSWVRQAPGKGLEWVAVIWGSETTYYNSALKSRFTISRDNSKNTVYLQMNSLRAEDTAVYYCARHYYYGGSYAMDYWGQGTLVTVSS VL: DIVMTQTPSSLSASVGDRVTITCRASQDISKYLNWYQQKPGKAPKLLIYHTSRLHSGVPSRFSGSGSGTDFTLTISSLQPEDFATYYCQQGNTLPYTFGPGTKVDIKR
12.3		VH16-L78V/VL43-F71Y (antibody, human IgG1, name in Kabat numbering, V domains shown, substitutions in Kabat numbering) VH: QVQLVQSGGGVVQPGRSLRLSCAASGVSLPDYGVSWVRQAPGKGLEWVAVIWGSETTYYNSALKSRFTISRDNSKNTVYLQMNSLRAEDTAVYYCARHYYYGGSYAMDYWGQGTLVTVSS VL: DIVMTQTPSSLSASVGDRVTITCRASQDISKYLNWYQQKPGKAPKLLIYHTSRLHSGVPSRFSGSGSGTDYTLTISSLQPEDFATYYCQQGNTLPYTFGPGTKVDIKR
58.8		VH16 Y32F/R94K/VL43 V3Q/T7S/N92A (antibody, human IgG1, name in Kabat numbering, V domains shown, substitutions in Kabat numbering) VH: QVQLVQSGGGVVQPGRSLRLSCAASGVSLPDFGVSWVRQAPGKGLEWVAVIWGSETTYYNSALKSRFTISRDNSKNTLYLQMNSLRAEDTAVYYCAKHYYYGGSYAMDYWGQGTLVTVSS VL: DIQMTQSPSSLSASVGDRVTITCRASQDISKYLNWYQQKPGKAPKLLIYHTSRLHSGVPSRFSGSGSGTDFTLTISSLQPEDFATYYCQQGATLPYTFGPGTKVDIKR
34.1		VH16 R94K Y98F VL43 (antibody, human IgG1, name in Kabat numbering, V domains shown, substitutions in Kabat numbering) VH: QVQLVQSGGGVVQPGRSLRLSCAASGVSLPDYGVSWVRQAPGKGLEWVAVIWGSETTYYNSALKSRFTISRDNSKNTLYLQMNSLRAEDTAVYYCAKHYYFGGSYAMDYWGQGTLVTVSS VL: DIVMTQTPSSLSASVGDRVTITCRASQDISKYLNWYQQKPGKAPKLLIYHTSRLHSGVPSRFSGSGSGTDFTLTISSLQPEDFATYYCQQGNTLPYTFGPGTKVDIKR
8.33		VH16-G42R/VL43-P44V (antibody, human IgG1, name in Kabat numbering, V domains shown, substitutions in Kabat numbering) VH: QVQLVQSGGGVVQPGRSLRLSCAASGVSLPDYGVSWVRQAPRKGLEWVAVIWGSETTYYNSALKSRFTISRDNSKNTLYLQMNSLRAEDTAVYYCARHYYYGGSYAMDYWGQGTLVTVSS VL: DIVMTQTPSSLSASVGDRVTITCRASQDISKYLNWYQQKPGKAVKLLIYHTSRLHSGVPSRFSGSGSGTDFTLTISSLQPEDFATYYCQQGNTLPYTFGPGTKVDIKR
4.35		VH16-F67L/VL43-Y87F (antibody, human IgG1, name in Kabat numbering, V domains shown, substitutions in Kabat numbering) VH: QVQLVQSGGGVVQPGRSLRLSCAASGVSLPDYGVSWVRQAPGKGLEWVAVIWGSETTYYNSALKSRLTISRDNSKNTLYLQMNSLRAEDTAVYYCARHYYYGGSYAMDYWGQGTLVTVSS VL: DIVMTQTPSSLSASVGDRVTITCRASQDISKYLNWYQQKPGKAPKLLIYHTSRLHSGVPSRFSGSGSGTDFTLTISSLQPEDFATYFCQQGNTLPYTFGPGTKVDIKR
6.93		VH16-R71K/VL43-P44V (antibody, human IgG1, name in Kabat numbering, V domains shown, substitutions in Kabat numbering) VH: QVQLVQSGGGVVQPGRSLRLSCAASGVSLPDYGVSWVRQAPGKGLEWVAVIWGSETTYYNSALKSRFTISKDNSKNTLYLQMNSLRAEDTAVYYCARHYYYGGSYAMDYWGQGTLVTVSS VL: DIVMTQTPSSLSASVGDRVTITCRASQDISKYLNWYQQKPGKAVKLLIYHTSRLHSGVPSRFSGSGSGTDFTLTISSLQPEDFATYYCQQGNTLPYTFGPGTKVDIKR
17.9		VH16-L78V/VL43-Y87F (antibody, human IgG1, name in Kabat numbering, V domains shown, substitutions in Kabat numbering) VH: QVQLVQSGGGVVQPGRSLRLSCAASGVSLPDYGVSWVRQAPGKGLEWVAVIWGSETTYYNSALKSRFTISRDNSKNTVYLQMNSLRAEDTAVYYCARHYYYGGSYAMDYWGQGTLVTVSS VL: DIVMTQTPSSLSASVGDRVTITCRASQDISKYLNWYQQKPGKAPKLLIYHTSRLHSGVPSRFSGSGSGTDFTLTISSLQPEDFATYFCQQGNTLPYTFGPGTKVDIKR
4.43		VH16-R71K/VL43 (antibody, human IgG1, name in Kabat numbering, V domains shown, substitutions in Kabat numbering) VH: QVQLVQSGGGVVQPGRSLRLSCAASGVSLPDYGVSWVRQAPGKGLEWVAVIWGSETTYYNSALKSRFTISKDNSKNTLYLQMNSLRAEDTAVYYCARHYYYGGSYAMDYWGQGTLVTVSS VL: DIVMTQTPSSLSASVGDRVTITCRASQDISKYLNWYQQKPGKAPKLLIYHTSRLHSGVPSRFSGSGSGTDFTLTISSLQPEDFATYYCQQGNTLPYTFGPGTKVDIKR

Source: patent publication US20100215651A1 (GLENMARK PHARMACEUTICALS S A, published 2010)
